Key:
[1] = biological target: T1, recombinant human LAG-3-Fc (human, UniProt P18627 23-450); experiment: BLI (Octet); human LAG-3-Fc captured on protein G biosensors, 1:1 fit
T1 construct: also called human LAG-3 (R&D Systems cat no. 2319-L3); LAG3 antigen
T1 sequence: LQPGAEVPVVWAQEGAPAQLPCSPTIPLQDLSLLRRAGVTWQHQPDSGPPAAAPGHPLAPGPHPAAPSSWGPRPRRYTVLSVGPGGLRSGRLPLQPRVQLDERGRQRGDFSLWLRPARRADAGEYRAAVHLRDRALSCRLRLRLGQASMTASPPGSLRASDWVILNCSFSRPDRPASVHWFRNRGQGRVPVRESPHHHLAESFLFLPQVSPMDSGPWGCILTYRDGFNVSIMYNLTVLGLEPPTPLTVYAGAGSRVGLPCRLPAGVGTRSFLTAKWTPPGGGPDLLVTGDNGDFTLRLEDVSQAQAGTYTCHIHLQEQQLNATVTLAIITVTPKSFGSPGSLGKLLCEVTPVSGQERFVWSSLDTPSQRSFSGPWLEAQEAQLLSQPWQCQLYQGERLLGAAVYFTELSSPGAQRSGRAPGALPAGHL
Procedure: (§1) Binding kinetics for multi-valent and bispecific VH were also measured in real-time bio-layer interferometer based biosensor Octet (ForteBio). […] All the binding studies were performed in HBS-ET Octet kinetics buffer. Biosensors were washed in Octet kinetics buffer in between different steps. […] The contact time for each of the association steps was 150 seconds and the dissociation step was 400 seconds. […] To compare the constructs, kinetic association (kₐ) and dissociation (kd) rate constants were determined by processing and fitting the data to a 1:1 binding model using ForteBio Analysis software.

[2] = biological target: T1, recombinant human LAG-3-Fc; experiment: HTRF binding; His-tagged construct with LAG-3-Fc, anti-human-Fc cryptate and anti-His-D2
[3] = biological target: T2, human LAG-3 expressed on cells (human, UniProt P18627 23-525); experiment: cell-based or functional assay
T2 sequence: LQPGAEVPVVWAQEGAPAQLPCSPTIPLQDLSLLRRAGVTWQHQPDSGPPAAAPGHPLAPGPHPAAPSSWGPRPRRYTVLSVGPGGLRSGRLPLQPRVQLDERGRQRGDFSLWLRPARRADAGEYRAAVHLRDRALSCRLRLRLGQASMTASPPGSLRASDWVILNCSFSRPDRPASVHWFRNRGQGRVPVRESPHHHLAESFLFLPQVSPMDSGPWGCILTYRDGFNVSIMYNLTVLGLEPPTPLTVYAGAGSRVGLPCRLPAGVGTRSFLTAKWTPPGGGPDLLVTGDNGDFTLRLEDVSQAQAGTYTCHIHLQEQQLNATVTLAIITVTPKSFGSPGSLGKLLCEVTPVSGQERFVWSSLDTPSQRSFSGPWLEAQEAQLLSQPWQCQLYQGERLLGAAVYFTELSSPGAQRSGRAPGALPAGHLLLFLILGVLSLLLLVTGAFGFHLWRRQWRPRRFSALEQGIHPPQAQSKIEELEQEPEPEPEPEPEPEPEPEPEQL

[4] = biological target: T3, human PD-1 expressed on cells (human, UniProt Q15116 25-288); experiment: cell-based or functional assay
[5] = biological target: T4, recombinant human PD-1 Fc chimera (human, UniProt Q15116 25-167); experiment: HTRF binding; His-tagged construct with PD-1-Fc, anti-human-Fc cryptate and anti-His-D2
T4 construct: Bought Fc chimera; also called human PD-1 (R&D systems cat no. 1086-PD); PD1 antigen
Procedure: Binding to PD-1 was measured by HTRF (homogeneous time resolved fluorescence). Serially diluted HIS-tagged constructs were prepared in assay buffer containing PBS, 0.1% BSA and 0.4M Potassium Fluoride. […] Time-resolved fluorescent emission at 620 nm and 665 nm was measured following excitation at 337 nm on the BMG PHERAstar plate reader. The HTRF ratio were calculated ((665 nm emission/620 nm emission)*10000) and the data corrected for (non-specific binding) to give the specific binding signal. EC50 were calculated from the titration curve (table 8 below).

[6] = biological target: T3, human PD-1 expressed on cells; experiment: cell-based or functional assay; remark: listed apart in the source
[7] = biological target: T3, human PD-1 expressed on cells; experiment: FMAT inhibition of human Fc tagged PD-L1 binding to CHO human PD-1 cells
Procedure: All reagents and serially diluted VH were prepared in FMAT assay buffer. […] Plates were incubated for 2 hours at room temperature then fluorescence measured in the FL2 (502 nm-537 nm) and FL5 (677-800 nm) channels on the Mirrorball plate reader (TTP) following excitation at 488 nm and 640 nm. Data was expressed as a % of the total binding control (i.e. % control) after subtraction of the background signal determined from the non-specific binding control wells.

[8] = biological target: T5, Rhesus monkey LAG-3 (used as cynomolgus LAG-3) (Rhesus monkey (called cynomolgus in the …)); experiment: BLI (Octet); cynomolgus LAG-3 immobilised on ARG2 sensors, 1:1 fit
T5 construct: extracellular domain
Procedure: as §1

T3 sequence (Q15116 25-288 limits assumed): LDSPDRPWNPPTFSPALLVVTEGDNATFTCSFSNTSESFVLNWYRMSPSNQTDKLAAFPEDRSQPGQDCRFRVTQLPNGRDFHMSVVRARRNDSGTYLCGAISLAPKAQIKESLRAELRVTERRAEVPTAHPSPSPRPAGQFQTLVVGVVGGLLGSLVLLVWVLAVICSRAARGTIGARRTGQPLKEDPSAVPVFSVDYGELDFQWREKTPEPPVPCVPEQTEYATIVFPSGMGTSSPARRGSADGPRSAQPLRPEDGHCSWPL
T4 sequence (Q15116 25-167 limits assumed, change not shown): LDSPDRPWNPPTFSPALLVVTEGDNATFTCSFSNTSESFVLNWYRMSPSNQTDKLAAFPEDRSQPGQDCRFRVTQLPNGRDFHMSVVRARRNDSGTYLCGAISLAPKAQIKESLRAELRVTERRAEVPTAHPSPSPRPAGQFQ

B1: VH1.1-6GS-VH1.1-6GS-VH2.63-His6 (bispecific antibody)
chain: EVQLVESGGGVVRPGGSLRLSCSASGFTFDDYGMSWVRQAPGKGLEWVSGIHWNGGNSGYADSVKGRFTISRDNAKNSLYLQMNSLRAEDTALYYCARIPREDCSSASCYTDAIDFWGPGTMVTVSSGGGGSGGGGSGGGGSGGGGSGGGGSGGGGSEVQLVESGGGVVRPGGSLRLSCSASGFTFDDYGMSWVRQAPGKGLEWVSGIHWNGGNSGYADSVKGRFTISRDNAKNSLYLQMNSLRAEDTALYYCARIPREDCSSASCYTDAIDFWGPGTMVTVSSGGGGSGGGGSGGGGSGGGGSGGGGSGGGGSEVQLVESGGGLVKPGGSLRLSCAASGFTFSDSSMTWMRQAPGKGLEWVSYISSGGGVKFYTDSVKGRFTISRDNAKNSLYLQMNSLRADDTAVYYCAREAPLRLGESPHDAFDISGQGTMVTVSSAAAHHHHHH
notes: Single-chain fusion of two anti-LAG-3 VH 1.1 and one anti-PD-1 VH 2.63; The entry includes AAA-His6; also called 1.1-6GS-1.1-6GS-2.63
- Kd [1]: 0.399 nM
- koff [1]: 0.000305 s⁻¹
- kon [1]: 764000 M⁻¹ s⁻¹
- EC50 [2]: 0.51 nM
- EC50 (M), NFAT-Luciferase Reporter Gene assay (LAG-3:MHCII) [3]: 3.3e-09 M
- EC50 (M), NFAT-Luciferase Reporter Gene assay (PD-1:PD-L1) [4]: 4.2e-08 M
- EC50 [5]: 0.59 nM
- potency in the PD-1:PD-L1 NFAT-luciferase reporter assay, fold lower than monoclonal antibodies [6]: > 30 fold

B2: VH1.1-4GS-VH1.1-His6 (VHH)
chain: EVQLVESGGGVVRPGGSLRLSCSASGFTFDDYGMSWVRQAPGKGLEWVSGIHWNGGNSGYADSVKGRFTISRDNAKNSLYLQMNSLRAEDTALYYCARIPREDCSSASCYTDAIDFWGPGTMVTVSSGGGGSGGGGSGGGGSGGGGSEVQLVESGGGVVRPGGSLRLSCSASGFTFDDYGMSWVRQAPGKGLEWVSGIHWNGGNSGYADSVKGRFTISRDNAKNSLYLQMNSLRAEDTALYYCARIPREDCSSASCYTDAIDFWGPGTMVTVSSAAAHHHHHH
- EC50 (M), NFAT-Luciferase Reporter Gene assay (LAG-3:MHCII) [3]: 1.4e-09 M

B3: VH1.1-8GS-VH1.1-His6 (VHH)
chain: EVQLVESGGGVVRPGGSLRLSCSASGFTFDDYGMSWVRQAPGKGLEWVSGIHWNGGNSGYADSVKGRFTISRDNAKNSLYLQMNSLRAEDTALYYCARIPREDCSSASCYTDAIDFWGPGTMVTVSSGGGGSGGGGSGGGGSGGGGSGGGGSGGGGSGGGGSGGGGSEVQLVESGGGVVRPGGSLRLSCSASGFTFDDYGMSWVRQAPGKGLEWVSGIHWNGGNSGYADSVKGRFTISRDNAKNSLYLQMNSLRAEDTALYYCARIPREDCSSASCYTDAIDFWGPGTMVTVSSAAAHHHHHH
- EC50 (M), NFAT-Luciferase Reporter Gene assay (LAG-3:MHCII) [3]: 5.4e-09 M

B4: VH 2.80 (VHH)
VHH: EVQLVESGGGLVKPGGSLRLSCAASGFTFSDSSMTWMRQAPGKGLEWVSYISSGGGVKFYADSVKGRFTISRDNAKNSLYLQMNSLRAEDTAVYYCAREAPLRLGESPHDAFDISGQGTMVTVSS
notes: Human VH single domain antibody against PD-1
- IC50 [7]: 1.82 nM

B5: VH 2.77 (VHH)
VHH: EVQLVESGGGLVKPGGSLRLSCAASGFTFSDSSMTWMRQAPGKGLEWVSYISSGGGVKFYTDSVKGRFTISRDNAKNSLYLQMNSLRAEDTAVYYCAREAPLRLGESPHDAFDISGQGTMVTVSS
- EC50 (M), NFAT-Luciferase Reporter Gene assay (PD-1:PD-L1) [4]: 9.7e-09 M

B6: VH 2.92 (VHH)
VHH: EVQLVESGGGLVKPGGSLRLSCAASGFTFSDESMTWMRQAPGKGLEWVSYISSGGGVKFYADSVKGRFTISRDNAKNSLYLQMNSLRAEDTAVYYCAREAPLRLGESPHDAFDISGQGTMVTVSS
notes: as for B4
- IC50 [7]: 2.8 nM
- EC50 (M), NFAT-Luciferase Reporter Gene assay (PD-1:PD-L1) [4]: 1.4e-08 M

B7: VH1.1-12GS-VH1.1-His6 (VHH)
chain: EVQLVESGGGVVRPGGSLRLSCSASGFTFDDYGMSWVRQAPGKGLEWVSGIHWNGGNSGYADSVKGRFTISRDNAKNSLYLQMNSLRAEDTALYYCARIPREDCSSASCYTDAIDFWGPGTMVTVSSGGGGSGGGGSGGGGSGGGGSGGGGSGGGGSGGGGSGGGGSGGGGSGGGGSGGGGSGGGGSEVQLVESGGGVVRPGGSLRLSCSASGFTFDDYGMSWVRQAPGKGLEWVSGIHWNGGNSGYADSVKGRFTISRDNAKNSLYLQMNSLRAEDTALYYCARIPREDCSSASCYTDAIDFWGPGTMVTVSSAAAHHHHHH
- EC50 (M), NFAT-Luciferase Reporter Gene assay (LAG-3:MHCII) [3]: 3.3e-09 M

B8: 2.77-6GS-1.1-6GS-1.1 (bispecific antibody)
chain: EVQLVESGGGLVKPGGSLRLSCAASGFTFSDSSMTWMRQAPGKGLEWVSYISSGGGVKFYTDSVKGRFTISRDNAKNSLYLQMNSLRAEDTAVYYCAREAPLRLGESPHDAFDISGQGTMVTVSSGGGGSGGGGSGGGGSGGGGSGGGGSGGGGSEVQLVESGGGVVRPGGSLRLSCSASGFTFDDYGMSWVRQAPGKGLEWVSGIHWNGGNSGYADSVKGRFTISRDNAKNSLYLQMNSLRAEDTALYYCARIPREDCSSASCYTDAIDFWGPGTMVTVSSGGGGSGGGGSGGGGSGGGGSGGGGSGGGGSEVQLVESGGGVVRPGGSLRLSCSASGFTFDDYGMSWVRQAPGKGLEWVSGIHWNGGNSGYADSVKGRFTISRDNAKNSLYLQMNSLRAEDTALYYCARIPREDCSSASCYTDAIDFWGPGTMVTVSSAAAHHHHHH
- EC50 (M), NFAT-Luciferase Reporter Gene assay (LAG-3:MHCII) [3]: 6.6e-09 M
- EC50 (M), NFAT-Luciferase Reporter Gene assay (PD-1:PD-L1) [4]: 3.7e-08 M
- potency in the PD-1:PD-L1 NFAT-luciferase reporter assay, fold lower than monoclonal antibodies [6]: > 30 fold

B9: VH 1.2-6GS-VH 1.2 (VHH)
chain: EVQLVESGGGVVRPGGSLRLSCAASGFTFDDYGMSWVRQAPGKGLEWVSGIHWNGGSTGYADSVKGRFTISRDNAKNSLYLQMNSLRAEDTALYYCARIPREDCSSASCYTDAIDFWGQGTMVTVSSGGGGSGGGGSGGGGSGGGGSGGGGSGGGGSEVQLVESGGGVVRPGGSLRLSCAASGFTFDDYGMSWVRQAPGKGLEWVSGIHWNGGSTGYADSVKGRFTISRDNAKNSLYLQMNSLRAEDTALYYCARIPREDCSSASCYTDAIDFWGQGTMVTVSSAAAHHHHHH
notes: It is built here from its name, the (Gly4Ser)n linker definition and the statement that the constructs used carried C-terminal AAA-His6; also called 1.2-6GS-1.2; LAG3 bivalent
- Kd [1]: 0.744 nM
- koff [1]: 0.00112 s⁻¹
- kon [1]: 1.5e+06 M⁻¹ s⁻¹
- Kd [8]: 0.536 nM
- koff [8]: 0.000148 s⁻¹
- kon [8]: 276000 M⁻¹ s⁻¹
